Data set [1] deals with T1, Mst77F WT (UniProt P16909 1-215).
T1 sequence: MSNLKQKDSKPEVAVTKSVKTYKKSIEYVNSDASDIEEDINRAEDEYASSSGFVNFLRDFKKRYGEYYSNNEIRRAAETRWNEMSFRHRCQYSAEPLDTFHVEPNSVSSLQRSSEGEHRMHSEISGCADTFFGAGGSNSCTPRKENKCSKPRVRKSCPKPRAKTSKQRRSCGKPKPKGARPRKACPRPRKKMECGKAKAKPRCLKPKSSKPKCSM
The data set is described as follows: FP.

In data set [2] the target is T2, Mst77F Δ110C (UniProt P16909 1-105).
T2 sequence: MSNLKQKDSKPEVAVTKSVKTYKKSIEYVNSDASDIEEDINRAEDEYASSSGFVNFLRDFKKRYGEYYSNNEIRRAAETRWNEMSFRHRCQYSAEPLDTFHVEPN
Description: pull-down.

The target of data set [3] is T3, Mst77F Δ110C;Mst77F Δ100N (Drosophila melanogaster?;Drosophila …, UniProt P16909;P16909 1-105;101-215, |).
T3 sequence 1: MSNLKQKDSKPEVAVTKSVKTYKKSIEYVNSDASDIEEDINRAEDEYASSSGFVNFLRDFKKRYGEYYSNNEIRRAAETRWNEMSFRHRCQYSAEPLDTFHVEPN
T3 sequence 2: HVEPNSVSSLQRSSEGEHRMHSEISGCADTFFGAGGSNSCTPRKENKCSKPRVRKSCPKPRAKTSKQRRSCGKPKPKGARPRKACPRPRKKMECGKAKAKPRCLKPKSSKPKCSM
The data set is described as follows: pull-down.

For the next data set, the target named is T4, Mst77F CTD* (UniProt P16909, CTD sequence randomized).
T4 sequence: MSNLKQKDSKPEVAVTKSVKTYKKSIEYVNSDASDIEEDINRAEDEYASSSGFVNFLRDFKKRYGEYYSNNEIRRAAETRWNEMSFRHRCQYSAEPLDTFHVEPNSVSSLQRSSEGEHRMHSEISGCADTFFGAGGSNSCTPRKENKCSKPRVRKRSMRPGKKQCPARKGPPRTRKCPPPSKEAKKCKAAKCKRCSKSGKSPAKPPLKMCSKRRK
The data set is described as follows: FP.

Data set [4] concerns the target T2, Mst77F Δ110C. Description: FP.
The target of data set [5] is T1, Mst77F WT. Description: FP. This is another data set of the same source.

Read-outs that look alike come from different tables or passages of the source.

B1: poly-AT 12 bp DNA (dsDNA)
DNA 1: ATATATATATAT
DNA 2: ATATATATATAT
In the case of B1, binding with Mst77F WT [1] was characterised by a dissociation constant (Kd) of 70 ± 30 nM.

B2: random 12 bp DNA, biotinylated (dsDNA)
DNA 1: GTACCACGGTAG
DNA 2: CTACCGTGGTAC
Turning to B2, the binding result was “no binding” with Mst77F Δ110C [2] and “binds” in data set [3].

B3: poly-GC 12 bp DNA (dsDNA)
DNA 1: GCGCGCGCGCGC
DNA 2: GCGCGCGCGCGC
The molecule B3 registered a Kd with Mst77F WT [1] of 170 ± 60 nM.

B4: random 12 bp DNA (dsDNA)
DNA 1: GTACCACGGTAG
DNA 2: CTACCGTGGTAC
With B4, the Kd with Mst77F CTD* was found to be 60 ± 10 nM; with Mst77F WT [5], 110 ± 50 nM. In addition, in the data set with Mst77F Δ110C [4], the binding result was “no binding”.

For the origin of these results see publication PMC4381051.
